Usually Kd stands for the equilibrium constant for the complex coming apart.

These results are taken from publication PMC8228455, “Redox Regulation of the Quorum-sensing Transcription Factor AgrA by Coenzyme A”.

For the data set, the target named is T1, AgrA (6xHis-SaAgrA) (Staphylococcus aureus, UniProt Q5HEG2 1-238).
T1 sequence: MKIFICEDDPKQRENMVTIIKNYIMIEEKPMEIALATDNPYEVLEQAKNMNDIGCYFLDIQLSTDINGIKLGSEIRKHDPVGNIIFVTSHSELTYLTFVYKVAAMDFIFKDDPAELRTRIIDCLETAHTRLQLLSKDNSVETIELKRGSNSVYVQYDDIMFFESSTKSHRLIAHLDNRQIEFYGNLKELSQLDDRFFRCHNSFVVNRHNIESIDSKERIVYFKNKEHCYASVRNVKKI
Nature of the data set: SPR; non-CoAlated; ka 5.75e3 1/Ms, kd 1.01e-2 1/s; SPR (Biacore 2000, SA chip, ~500 RU DNA): 20 mM HEPES pH 7.6, 250 mM KCl, 10% glycerol; 30 uL/min; temperature not stated; 1:1 Langmuir fit. The note with it: protein: recombinant; tags: 6xHis; chain copies: 2; label: 5' biotin (immobilized on SA chip); blunt. In general terms: Surface plasmon resonance follows binding to a sensor surface in real time, without labels.

B1: P2 promoter (dsDNA)
DNA 1: TAACAGTTAAGTATTTATTTCCTACAGTTAGGCA
DNA 2: TGCCTAACTGTAGGAAATAAATACTTAACTGTTA
Turning to B1, the Kd amounted to 1750 ± 580 nM.
